experiment: yeast display, Sf9 membrane polyspecificity reagent, FACS + sequencing; frameworks hold sequencing errors
How it was run: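 Synthetic nanobody libraries on Saccharomyces cerevisiae BJ5465 were galactose-induced for 36–48 hours, stained 1 hour at 4 °C with 10% biotinylated, detergent-solubilized Sf9 membrane reagent and enriched on streptavidin microbeads. FACS then separated cells into low and high (top ~1%) gates by anti-HA (expression) and streptavidin (reagent binding) fluorescence. Genes were colony-PCR amplified, MiSeq 2 × 250 sequenced and CDR-length filtered. A clone's polyreactivity label is that of its gate of origin.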

Sequence | polyreactivity (PSR sort gate)
QVQLVESGGGLVQAGGSLRLSCAASGRIFVRNPMGWYRQAPGKERELVADITNGGSTNYADSVKGRFTISRDNAKNTVYLQMNSLKPEDTAVYYCAATYPYSWVYSGYYYWGQGTQVTVSS | low polyreactivity
QVQLVESGGGLVQAGGSLRLSCAASGGTFYRYAMGWYRQAPGKEREFVASITQRGGRTYYADSVKGRFTISRDNAKNTVYLQMNSLKPEDTAVYYCAVEYYNYPNSRRYDYWGQGTQVTVSS | high polyreactivity
QVQLVESGGGLVQAGGSLRLSCAASGRIFDGNVMGWYRQAPGKERELVAAISRSGVRTYYADSVKGRFTISRDNAKKTVYLQMNSLKPEDTAVYYCAADVYRQFYPFKSDYWGQGTQVTVSS | high polyreactivity
QVQLVESGGGLVQAGGSLRLSCAASGITFQRYAMGWYRQAPGKERELVAAISTNGGTTYYADSVKGRFTISRDNAKNTVYLQMNSLKPEDTAVYYCNAESGYVYYIRYNYWGQGTQVTVSS | high polyreactivity
QVQLVESGGGLVQAGGSLRLSCAASGRTFPPYAMGWYRQAPGKERELVASIRRGGSTHYADSVKGRFTISRDNAKNTVYLQMNSLKPEDTAVYYCNADVIFGYTHYNYWGQGTQVTVSS | high polyreactivity
HVQLVESAGGLVPAGGSLRLSCAASGFIVWWYPMGWYRQAPGKERELVASITRGGRTNYADSVKGRFTISRDNAKNTVYLHMNSLKPEDTAVYYCAADVLLSRSNTPQRPSRLYYWGQVTQVTVSS | high polyreactivity
QVQLVESWGGLVQAGGSLRLSCAASGRTNGYAMGWYRQAPGKERELVARITWRGGSTSYADSVKGRFTISRDNAKNTVYLQMNSLKREDTAVYYCAAGFYFPVYTYVRKRYYYWGQGTQVTVSS | high polyreactivity
QVQLVESGGGLVQAGGSLRLSCAASGRTFKRYAMGWYRQAPGKERELVAAITFSGGSTYYADSVKGRFTISRDNAKNTVYLQRNSLKPEDTAVYYCAADGEHYPWYYYWGQGTQVTVSS | high polyreactivity
QVQLVESGGGLVQAGGSLRLRCAASGSTFRQYAMGWYRQAPGKERELVAAISSGGRTNYADSVKGRFTISRDNAKNTVYLQMNSLKPEDTAVYYCAADIRRRVPVRGYYYWGQGTQVTVSS | high polyreactivity
QVQLVESGGGLVQAGGSLRLSCAASGRIFSSYAMGWYRQAPGKERELVAAIRYDAGSTYYADSVKGRFTISRDHAKNTVYLQMNSLKPEDTAVYYCAARIYFEQWSWYGYWGQGTQVTVSS | high polyreactivity
QVQLVESGGGLVQAGGSLRLSCAASGFTFYGYAMGWYRQAPGKERELVAAINSAGRTYYADSVKGRFTISRDNAKNTVYLQMNSLKPEDTAVYYCASKYVRGHGYWGQGTQVTVSS | high polyreactivity
QVQLVESGGGLVQAGGSLRLSCAASGSIVYANTMGRYRQAPGKERELVAAIRSVGRTYYADSVKGRFTISRDNAKNTVYLQMNSLKPADTAVYYCAADPRSYFTSEYWGQGTQVTVSS | low polyreactivity
QVQLVDSGGGLVQAGGSLRLSCPASGIIIARNTMGWYRQAPGKERELVAAISTRGTTTYYADSVKGRFTISRDNAKNTVYLQMNSLKPEDTAVYSCAAFRVHTDRYNYWGQGTQVTVSS | high polyreactivity
QVQLVESGGGLVQAGGSLRLSCAASGNTFAGYAMGWYRQAPGKEMEWVAAISTRGGITYYADSVKGRFTISRDNAKNTVYLQMNCLKPEDTAVYYCAAEFYYPWTYCSCDGRRVYYWGQGTQVTVSS | high polyreactivity
QVQLVESGGGLVQAGGSLRLSCAASGNIISTYAMGWYRQAPGKERELVAAITSSSARTYYADSVKGRFTISRDNAKNTVYLQLNSLKPEDTAVYYCATRTGIRQDLVHLYRVYYWGQGTQVTVSS | high polyreactivity
QVQLVESGGGLVQAGGSLRLSCAASGSIFDLYAMGWYRQAPGKERELVADISIADSTNYADSVKGRFTISRDNAKNTVYLQMNSLKPEDTGVYYCNADVWWYSYEYDYWGQGTQVTVSS | low polyreactivity
QVQLVESGGGLVQAGGSLRLSCAASGLTFVQYTMGWYRQAPGKERELVAVITSASSTNYADSVKGRFTISRDNAKNTVYLQMNSLKPEDTAVYYCNATTYPYYTNSYQYEYWGQGTQVTVSS | low polyreactivity
QVQLVESGGGLVQAGGSLRLSCAASGLIFQHNAMGWYRQAPGKERELVAAISRSAGSTYYADSVKGRFTISRDNAKNTVYLQMNSLKPEDTAVYYCAKRPTPTSKYDTVRYGYWGQGTQVTVSS | low polyreactivity
QVQLVESGGGLVQAGGSLRLSCAASGYTFYRYAMGWYRQAPGKERELVAGISRDGGSTYYADSVKGRFTISRDNAKNTVYLQMNSLKPEDTAVYYCAADKTRYRLGRDYWGQGTQVTVSS | low polyreactivity
QVQLVESGGGLVQAGGSLRLSCAASGSIFGRYAMGWYRQAPGKERELVASISRRCGSTYYADSVKGRFTISRDNAKNTVYLQMNRLKPEDTAVYDCNVAPWSASSANLEDYWGQGNQVTVSS | high polyreactivity
QVQLVESGGGLVQAGGSLRLSCAASGSTSTYYAMGWYRQAPWKERELVAANTLGAGRTYADSEKGRFTISRDNAKNTVSLQMNSLKPEDTAVYYCAADGYISVNYLRYDYWGQGTQVTVSS | low polyreactivity
QVQLVESGGGLVQAGGSLRLSCAASGRTFWNYAMGWYRQAPGKERDLVAVIRFSDGSTYYAYSVKGRFTISRDNAKNTVYLHMNSLKPEDTAVYYCAAKGPRRWGSGFDYWGQGTQVTVSS | low polyreactivity

Sequence | polyreactivity (PSR sort gate)
QVQLVESGGGLVQAGGSLRLSCAASGSTFAWYAMGWYRQAPGKERELVASIRWGGGSTYYADSVKGRFTISRDNAKNTVFLQMHSLKPEDTAVYYCAAYFGYTVGRYNYWGQGTQVTVSS | high polyreactivity
QVQLLESGGGLVQAGGSLRLSCAASGIIFSSNAMGWYRKAPGKERELVAAITRRGGSTRYADSVKGRFTISRDNAKNTVYLQMNSLKPEDTAVYYCNALSGYPYRWGISYPMDYWGQGTQVTVSS | high polyreactivity
QVQLVESGGGLVQAGGSLRLSCAASGRTFGYNAMGWYRQAPGKERELVAAISRGDSTNYADSVKGRFTISRDNAKNTVYLQMNSLKPEDTAVYYCAAAFPRYRSRAIRVDYWGQGTQVTVSS | high polyreactivity
QVQLVESGGGLVQSGGTLRLSCAASGFTFYWYAMGWYRQAPGKEREMVAAITRGGRTYYEDSVKGRFTITRDNAKNTVYLQMNSLKPEDNAVYYCYAYVSWYRTVRTKYDYWGQGTQVTVSS | high polyreactivity
QVQLVESGGVLVQAGGSLRLSCAASGSTFVYNAMGWYRQAPGKERELVARISWSVTDTYYADSVKGRFTISRDNAKNTVYLQMNSLKPEDTAVYYCNTDVTYSHLVFGYDYWGQGTQVTVSS | low polyreactivity
QVQLVESGGGLVQAGGSLRLSCAASGFIFFKYAMGWYRQAPGKERELVAGITSGGSTYYADSVKGRFTISRDNAKNTVYLQMNSLKPEDTAVYYCAAYVKRESAPYGYWGQGTQVTVSS | low polyreactivity
QVQLVESGGGLVQAGGSLRLSCAASGRTFGTYAMGWYRQAPGKERELVAAISRRGGTTYYADSVKGRFTISRDNAKNTVYLQMNSLKPEDTAVYYCARASWSITTVLSTMDYWGQGTQVTVSS | high polyreactivity
QVQLVESGGGLVQAGGSLRLSCAASGSTFPYYTMGWYRQAPGKERELVAAITWRGGRTYYADSVKGRFTISRDNAKYTVYLQMNSLKPEDTAVYYCNAYGIDTGDYWGQGTQVTVSS | high polyreactivity
QVQLVESGGGLVQAGGSLRLSCAASGSTFGRYAMGWYGQAPGKERELVAAISASGASTYYADSVKGRFTISRDNAKNTVYLQMNSLKPEDTAVYYSNAPYYFAGKPWGSWRYGYWGQGTQVTVSS | low polyreactivity
QVQLVESGGGLVQAGGSLRLSCAASGITFVTYAMGWYRQAPGKEREFVASINWITGNTYYADSVKGRFTISRDNAKNTVYLQMNSLKPEDTAVYYCATVDWSLYLGTPPSYYWGQGTQVTVSS | low polyreactivity
QVQLVESGGGLVQAGGSLRLSCAASGFTLVKYVMVWYMQAPGKEREFVATIRRRGGNTYYADSVKGRFTISRDNAKNTVYLQMNSLKPEDTAVYYCAAKKRSDLRTGDMEYWGQGTQVTVSS | high polyreactivity
QVQLVESGGGLVQAGGSLRLSCAASGRTFRANAMGWYRQAPGKERELVAAIRTGTRTYYADSVKGRFTISRDNAKNTVYLQMNSLKPEDTAVYYCNRRHYYPYDNYDAMYYWGQGTQVTVSS | high polyreactivity
QVQLVESGGGLVQAGGSLRLSCAASGFTFWAYAMGWYRQAPGKERELVAPISWSGGITYYADSVKGRFTISRDNAKNTVYLQMNSLKPEDTAVYYCAADPYVLVWVEDYDYWVQGTQVTVSS | high polyreactivity
QVQLVESGGGLVQAGGSHRLSCAASGRTFANYAMGWYRQAPGKERELVAAITSGGRTYYADSVKGRFTISRDNAKNTVYLQMNSLKPEDSAVYYCAADYTYDYQNDYWGQGTQVTVSS | high polyreactivity
QVQLVESGGGLVQAGGSLRLSCAASGSILHLYAMGWYRQAPGKERELVARINSGGTTNYADSVKGRFTISRDNAKNTVYLQMNSLKPEDTAVYYCAARFTPYITSDDGHYDYWGQGTQVTVSS | low polyreactivity
QVQLVESGVGLVQAGGSLRLSCAASGFTFTRYAMGWYRQAPGKERELVAAISWTGGSTYYADSVKGRFTISRDNAKNTVYLQMNSLKPEDTAVYYCAGRFNYQWSKFGYWGQGTQVTVSS | high polyreactivity
QVQIVESGGCLVQAGGSLRLSCAASGFTLFLNSMGWYRQAPGQERELVAAISKSDGITYYADSVKGRFSISRDNAKNTVYLKMNSLKPEDTAVYYCNADARGWSVWDPGEYNYWGQGTQVNVSS | low polyreactivity
QVQLVESGGGLVQAGGSLRLSCAASGRTFNKYAMGWYRKAPGKERELVAAINYSGGRTYYADSVKGRFTISRDNAKNTVSLQMNSLKPEDTAVYYCNRDDAWQEYDYWGQGTQVTVSS | low polyreactivity
QVQLVESGGGLVQAGGSLRLSCAASGLIFGTKAMGCYRQAPGKERELVAAMSGSGGRTYYADSVKARFTISRDNAKNTVYLQMNSLKPEDTAVYYCASRFWRLHVGYGYSGQGTQVTVSS | high polyreactivity
QVQLVESGGGLVQAGGSLRLSCAASGRISYYYLGWYRQAPGKERELVAAISWNGGRTYYADSVKGRFTISRDNAKNTVYLQMNSLKPEDTAVYYCAAKTGYYPYGYWGQGTQVTVSS | high polyreactivity
QVQLVESGGGLVQAGGRLRLSCAASGFTFSRNTLGWYRQAPGKERELVARITKRGGTTYYADSVKGRFTISRDNAKNTVYLQMNSLKPEDTAVYYCATVGQPSYRAPDGFNYWGQGTQVTVSS | high polyreactivity
